We go through three molecules from article doi:10.1101/2020.02.12.945204 (bioRxiv, 2020).

B1: H6 flagella (polymeric flagellin) from E. coli O127:H6 (natural protein)
chain: MAQVINTNSLSLITQNNINKNQSALSSSIERLSSGLRINSAKDDAAGQAIANRFTSNIKGLTQAARNANDGISVAQTTEGALSEINNNLQRIRELTVQASTGTNSDSDLDSIQDEIKSRLDEIDRVSGQTQFNGVNVLAKDGSMKIQVGANDGQTITIDLKKIDSDTLGLNGFNVNGKGETANTAATLKDMSGFTAAAAPGGTVGVTQYTDKSAVASSVDILNAVAGADGNKVTTSADVGFGTPAAAVTYTYNKDTNSYSAASDDISSANLAAFLNPQARDTTKATVTIGGKDQDVNIDKSGNLTAADDGAVLYMDATGNLTKNNAGGDTQATLAKVATATGAKAATIQTDKGTFTSDGTAFDGASMSIDANTFANAVKNDTYTATVGAKTYSVTTGSAAADTAYMSNGVLSDTPPTYYAQADGSITTTEDAAAGKLVYKGSDGKLTTDTTSKAESTSDPLAALDDAISQIDKFRSSLGAVQNRLDSAVTNLNNTTTNLSEAQSRIQDADYATEVSNMSKAQIIQQAGNSVLAKANQVPQQVLSLLQG
B2: recombinant human galectin-4 (natural protein)
chain: MAYVPAPGYQPTYNPTLPYYQPIPGGLNVGMSVYIQGVASEHMKRFFVNFVVGQDPGSDVAFHFNPRFDGWDKVVFNTLQGGKWGSEERKRSMPFKKGAAFELVFIVLAEHYKVVVNGNPFYEYGHRLPLQMVTHLQVDGDLQLQSINFIGGQPLRPQGPPMMPPYPGPGHCHQQLNSLPTMEGPPTFNPPVPYFGRLQGGLTARRTIIIKGYVPPTGKSFAINFKVGSSGDIALHINPRMGNGTVVRNSLLNGSWGSEEKKITHNPFGPGQFFDLSIRCGLDRFKVYANGQHLFDFAHRLSAFQRVDTLEIQGDVTLSYVQI
B3: H48 flagella (polymeric flagellin) from commensal E. coli K12:O175:H48 (natural protein)
chain: MAQVINTNSLSLITQNNINKNQSALSSSIERLSSGLRINSAKDDAAGQAIANRFTSNIKGLTQAARNANDGISVAQTTEGALSEINNNLQRVRELTVQATTGTNSESDLSSIQDEIKSRLDEIDRVSGQTQFNGVNVLAKNGSMKIQVGANDNQTITIDLKQIDAKTLGLDGFSVKNNDTVTTSAPVTAFGATTTNNIKLTGITLSTEAATDTGGTNPASIEGVYTDNGNDYYAKITGGDNDGKYYAVTVANDGTVTMATGATANATVTDANTTKATTITSGGTPVQIDNTAGSATANLGAVSLVKLQDSKGNDTDTYALKDTNGNLYAADVNETTGAVSVKTITYTDSSGAASSPTAVKLGGDDGKTEVVDIDGKTYDSADLNGGNLQTGLTAGGEALTAVANGKTTDPLKALDDAIASVDKFRSSLGAVQNRLDSAVTNLNNTTTNLSEAQSRIQDADYATEVSNMSKAQIIQQAGNSVLAKANQVPQQVLSLLQG

Data set [1] concerns the molecule itself. Briefly: SEC. On the technique in general: Size exclusion chromatography separates by hydrodynamic size, large species first.
Data set [2] has as its target B3. Description: ELISA. In general terms: ELISA stands for enzyme-linked immunosorbent assay.
Data set [3] has as its target B1. Briefly: ELISA.

On to B1, for which, in data set [1], the binding result is listed as “binds”.

Consider B2, for which the binding result in data set [2] and in data set [3] was “binds” throughout.

For B3, in data set [1], the binding result was “binds”.
